Article PMC9666519

Tests used:
[1] = target: 20S proteasome core particle of Vairimorpha necatrix (Vairimorpha necatrix (endogenous in spores)); experiment: cryo-EM structure; 26S proteasomes from germinated sporoplasms, purified with 20 mM ATP; 8.3 Å map without symmetry, AlphaFold models of the RP subunits docked as rigid bodies
[2] = target: 20S proteasome core particle of Vairimorpha necatrix (Vairimorpha necatrix (endogenous in spores)); experiment: cryo-EM structure; proteasomes from dormant V. necatrix spores, bead-beaten without ATP, lysate on Superose 6 Increase in 50 mM Tris pH 7.4, 300 mM NaCl, 5 mM DTT; 2.8 Å map of the 20S CP, C2 symmetry

| percent of proteasome particles capped by RP [1] | percent of proteasome particles capped by RP on both ends [1] | stoichiometry N (PI31L per 20S core particle) [2] | Substance |
| --- | --- | --- | --- |
| 12% | 1.5% | – | 19S regulatory particle of the Vairimorpha necatrix proteasome (complex) |
| – | – | 2 | PI31-like protein (PI31L) of Vairimorpha necatrix (natural protein) |
